Source: publication PMC6855452

Experiments:
[1] = target: LY6A (C57BL/6J allele), expressed from Ly6a cDNA in HEK293T cells (mouse (C57BL/6J)) (UniProt P05533); assay: bound vector genome assay (qPCR of viral genomes on cells); HEK293T cells transfected with Ly6 cDNA or left untransfected; 48 h later chilled to 4°C, recombinant AAV at 10^5 vg/cell for one hour, washed three times with cold PBS; vector genomes normalized to cell genomes
[2] = target: LY6A, endogenous on primary brain microvascular endothelial cells of C57BL/6 mice (mouse (endogenous in C57BL/6 BMVECs)) (UniProt P05533); assay: bound vector genome assay (qPCR of viral genomes on cells); primary BMVECs of C57BL/6 mice treated with SaCas9 vectors with sgRNAs against Ly6a or Ly6c1 or no sgRNA; 4°C, one hour, AAV at 10^6 vg/cell; normalized to cells treated with a vector lacking a sgRNA

Substance	fold increase in binding to cells on Ly6a expression [1] [fold]	reduction in binding to BMVECs on Ly6a disruption (~50% reduction of LY6A) [2] [%]
AAV-PHP.B capsid (engineered AAV9 variant) (from UniProt Q6JC40 1-736; Q6JC40 1-736; Q6JC40 1-736) (complex)	> 50	–
AAV-PHP.eB capsid (engineered AAV9 variant, further evolved from AAV-PHP.B) (from UniProt Q6JC40 1-736; Q6JC40 1-736; Q6JC40 1-736) (complex)	> 50	50
